Source: US20190177370A1 (TOKYO UNIVERSITY OF PHARMACY AND LIFE SCIENCES, published 2019)
Square brackets hold non-standard residues; d marks the D form. Primed or numbered codes have the meaning given here. * marks the point of attachment. m‑dPEG(4)″ = m-dPEG(4) acid, coupled to Acp (R^111 group of Formula (4)), COCCOCCOCCOCCC(=O)*; m‑dPEG(4) = m-dPEG(4) acid, coupled to Acp, with Acp forms R^111 of Formula (4); 2Nal = N[C@@H](Cc1ccc2ccccc2c1)C(=O)O; Cha = N[C@@H](CC1CCCCC1)C(=O)O; Chg = N[C@H](C(=O)O)C1CCCCC1; Nva = CCC[C@H](N)C(=O)O; Ahx = NCCCCCC(=O)O

T1: myostatin (UniProt O14793 267-375, limits assumed)
T1 sequence (looked up): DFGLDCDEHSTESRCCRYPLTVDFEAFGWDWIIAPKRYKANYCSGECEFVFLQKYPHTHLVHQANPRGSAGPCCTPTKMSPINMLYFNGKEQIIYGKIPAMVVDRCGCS

B1: PDM-39 (peptide)
peptide: {m‑dPEG(4)″-Ahx}-W[Cha]IEWIKIQIISKLRL-NH2
SMILES: CC[C@H](C)[C@H](NC(=O)[C@H](CC1CCCCC1)NC(=O)[C@H](Cc1c[nH]c2ccccc12)NC(=O)CCCCCNC(=O)CCOCCOCCOCCOC)C(=O)N[C@@H](CCC(=O)O)C(=O)N[C@@H](Cc1c[nH]c2ccccc12)C(=O)N[C@H](C(=O)N[C@@H](CCCCN)C(=O)N[C@H](C(=O)N[C@@H](CCC(N)=O)C(=O)N[C@H](C(=O)N[C@H](C(=O)N[C@@H](CO)C(=O)N[C@@H](CCCCN)C(=O)N[C@@H](CC(C)C)C(=O)N[C@@H](CCCNC(=N)N)C(=O)N[C@@H](CC(C)C)C(N)=O)[C@@H](C)CC)[C@@H](C)CC)[C@@H](C)CC)[C@@H](C)CC
B2: PDM-44 (peptide)
peptide: {m‑dPEG(4)″-Ahx}-WYIE[2Nal]IKIQIISKLRL-NH2
SMILES: CC[C@H](C)[C@H](NC(=O)[C@H](Cc1ccc(O)cc1)NC(=O)[C@H](Cc1c[nH]c2ccccc12)NC(=O)CCCCCNC(=O)CCOCCOCCOCCOC)C(=O)N[C@@H](CCC(=O)O)C(=O)N[C@@H](Cc1ccc2ccccc2c1)C(=O)N[C@H](C(=O)N[C@@H](CCCCN)C(=O)N[C@H](C(=O)N[C@@H](CCC(N)=O)C(=O)N[C@H](C(=O)N[C@H](C(=O)N[C@@H](CO)C(=O)N[C@@H](CCCCN)C(=O)N[C@@H](CC(C)C)C(=O)N[C@@H](CCCNC(=N)N)C(=O)N[C@@H](CC(C)C)C(N)=O)[C@@H](C)CC)[C@@H](C)CC)[C@@H](C)CC)[C@@H](C)CC
B3: PDM-38 (peptide)
peptide: {m‑dPEG(4)″-Ahx}-W[2Nal]IEWIKIQIISKLRL-NH2
SMILES: CC[C@H](C)[C@H](NC(=O)[C@H](Cc1ccc2ccccc2c1)NC(=O)[C@H](Cc1c[nH]c2ccccc12)NC(=O)CCCCCNC(=O)CCOCCOCCOCCOC)C(=O)N[C@@H](CCC(=O)O)C(=O)N[C@@H](Cc1c[nH]c2ccccc12)C(=O)N[C@H](C(=O)N[C@@H](CCCCN)C(=O)N[C@H](C(=O)N[C@@H](CCC(N)=O)C(=O)N[C@H](C(=O)N[C@H](C(=O)N[C@@H](CO)C(=O)N[C@@H](CCCCN)C(=O)N[C@@H](CC(C)C)C(=O)N[C@@H](CCCNC(=N)N)C(=O)N[C@@H](CC(C)C)C(N)=O)[C@@H](C)CC)[C@@H](C)CC)[C@@H](C)CC)[C@@H](C)CC
B4: PDM-53 (peptide)
peptide: {m‑dPEG(4)″-Ahx}-WYIEWIKIQI[Chg]SKLRL-NH2
SMILES: CC[C@H](C)[C@H](NC(=O)[C@H](Cc1ccc(O)cc1)NC(=O)[C@H](Cc1c[nH]c2ccccc12)NC(=O)CCCCCNC(=O)CCOCCOCCOCCOC)C(=O)N[C@@H](CCC(=O)O)C(=O)N[C@@H](Cc1c[nH]c2ccccc12)C(=O)N[C@H](C(=O)N[C@@H](CCCCN)C(=O)N[C@H](C(=O)N[C@@H](CCC(N)=O)C(=O)N[C@H](C(=O)N[C@H](C(=O)N[C@@H](CO)C(=O)N[C@@H](CCCCN)C(=O)N[C@@H](CC(C)C)C(=O)N[C@@H](CCCNC(=N)N)C(=O)N[C@@H](CC(C)C)C(N)=O)C1CCCCC1)[C@@H](C)CC)[C@@H](C)CC)[C@@H](C)CC
B5: PDM-52 (peptide)
peptide: {m‑dPEG(4)″-Ahx}-WYIEWIKIQI[Nva]SKLRL-NH2
SMILES: CCC[C@H](NC(=O)[C@@H](NC(=O)[C@H](CCC(N)=O)NC(=O)[C@@H](NC(=O)[C@H](CCCCN)NC(=O)[C@@H](NC(=O)[C@H](Cc1c[nH]c2ccccc12)NC(=O)[C@H](CCC(=O)O)NC(=O)[C@@H](NC(=O)[C@H](Cc1ccc(O)cc1)NC(=O)[C@H](Cc1c[nH]c2ccccc12)NC(=O)CCCCCNC(=O)CCOCCOCCOCCOC)[C@@H](C)CC)[C@@H](C)CC)[C@@H](C)CC)[C@@H](C)CC)C(=O)N[C@@H](CO)C(=O)N[C@@H](CCCCN)C(=O)N[C@@H](CC(C)C)C(=O)N[C@@H](CCCNC(=N)N)C(=O)N[C@@H](CC(C)C)C(N)=O

target: T1, myostatin; assay: cell-based or functional assay

Myostatin inhibitory activity at 1 µM (luciferase reporter assay), ≥ 40 % inhibition:
{m‑dPEG(4)-Ahx}-LYIEWIKIQIISKLRL-NH2 [PDM-34]
{m‑dPEG(4)-Ahx}-WSIEWIKIQIISKLRL-NH2 [PDM-43]
{m‑dPEG(4)-Ahx}-YWIEWIKIQIISKLRL-NH2 [PDM-28]
{m‑dPEG(4)-Ahx}-WRIESIKIQIISKLRL-NH2 [PDM-62]
{m‑dPEG(4)-Ahx}-WYIEFIKIQIISKIRL-NH2 [PDM-49]
{m‑dPEG(4)-Ahx}-WYIERIKIQIISKLRL-NH2 [PDM-47]
{m‑dPEG(4)-Ahx}-YYIESIKIQIISKLRL-NH2 [PDM-61]
{m‑dPEG(4)-Ahx}-WYIEWIKIQIYSKLRL-NH2 [PDM-56]
{m‑dPEG(4)-Ahx}-WHIEWIKIQIISKLRL-NH2 [PDM-41]
B1
{m‑dPEG(4)-Ahx}-WLIEWIKIQIISKLRL-NH2 [PDM-40]
{m‑dPEG(4)-Ahx}-WYIELIKIQIISKLRL-NH2 [PDM-45]
{m‑dPEG(4)-Ahx}-WYIESIKIQIISKLRL-NH2 [PDM-46]
H-WYIEWIKIQIWSKLRL-NH2 [nPDM-55]
{m‑dPEG(4)-Ahx}-WYIEYIKIQIISKIRL-NH2 [PDM-50]
{m‑dPEG(4)-Ahx}-WYIEWIKIQIFSKLRL-NH2 [PDM-54]
{m‑dPEG(4)-Ahx}-WYIEWIKIQIWSKLRL-NH2 [PDM-55]
{m‑dPEG(4)-Ahx}-HYIEWIKIQIISKLRL-NH2 [PDM-35]
B2
B3
B4
{m‑dPEG(4)-Ahx}-WFIEWIKIQIISKLRL-NH2 [PDM-37]
{m‑dPEG(4)-Ahx}-WRIEWIKIQIISKLRL-NH2 [PDM-42]
B5
{m‑dPEG(4)-Ahx}-WYIEHIKIQIISKIRL-NH2 [PDM-51]
{m‑dPEG(4)-Ahx}-WYIESIKIQIWSKLRL-NH2 [PDM-63]
H-WYIESIKIQIISKLRL-NH2 [nPDM-46]
H-WYIESIKIQIWSKLRL-NH2 [nPDM-63]

Myostatin inhibitory activity at 0.3 µM (luciferase reporter assay), ≥ 40 % inhibition:
H-WYIEWIKIQIWSKLRL-NH2 [nPDM-55]
{m‑dPEG(4)-Ahx}-WYIEWIKIQIWSKLRL-NH2 [PDM-55]
H-WYIKWIKIQIWSKLRL-NH2 [nPDM-55/E31K]
H-WYIQWIKIQIWSKLRL-NH2 [nPDM-55/E31Q]
{m‑dPEG(4)-Ahx}-WYIESIKIQIWSKLRL-NH2 [PDM-63]
H-WYIRWIKIQIWSKLRL-NH2 [nPDM-55/E31R]
